In patent US9745384B2, “Peptides useful for modulating histone demethylase function” (The Brigham and Women's Hospital, Inc., priority 2012, dated 2017):

How the values were obtained:
[1] = system: nucleosomes purified from HeLa; experiment: Nucleosome pulldown by GST-NPAC proteins; type: binding
Protocol: Nucleosomes were purified from HeLa as previously described (Umlauf et al., 2004). To examine nucleosome binding selectivity of NPAC, 5 μg GST fusion protein bound to glutathione agarose were incubated with 20 μg nucleosomes overnight at 4° C. in nucleosome binding buffer (50 mM NaPO4 pH 7.4, 200 mM NaCl, 0.5% NP-40, 5% glycerol, 10 μM ZnSO4, 1 mM MgCl2, 1 mM DTT, 0.1 mM PMSF). After washing 4 times with the same buffer at 4° C., the beads were boiled in 1×SDS sample loading buffer and elute was resolved by 15% SDS-PAGE for immunoblot analysis or coomassie staining.
For free-DNA competition assays, human genomic DNA was purified from HeLa cells and fragmented to an average size around 300 bp by sonication. Equal amounts of GST-NPAC.d5 bound to glutathione beads were pre-incubated with 0, 5, 10, 25 μg genomic DNA fragments in nucleosome binding buffer for 30 minutes at room temperature, and equal amounts of nucleosomes were added and incubated overnight at 4° C. After extensive washing, GST-NPAC.d5 and bound nucleosomes were eluted by boiling in 1×SDS sample loading buffer, resolved by SDS-PAGE and stained with coomassie blue.

LSD2 = target: T1, LSD2 (Homo sapiens, UniProt Q8NB78); experiment: H3K4me2 peptide demethylation assay (MALDI-TOF); type: biochemical; set-up: 0.15 μM or 1.2 μM purified LSD2 (residues 51-822); His6 (cleaved yes); made in house; host or cells: Sf9 insect cells (baculovirus); settings: longer H3K4me2 peptide residues 1-44
T1 sequence (Q8NB78 1-822): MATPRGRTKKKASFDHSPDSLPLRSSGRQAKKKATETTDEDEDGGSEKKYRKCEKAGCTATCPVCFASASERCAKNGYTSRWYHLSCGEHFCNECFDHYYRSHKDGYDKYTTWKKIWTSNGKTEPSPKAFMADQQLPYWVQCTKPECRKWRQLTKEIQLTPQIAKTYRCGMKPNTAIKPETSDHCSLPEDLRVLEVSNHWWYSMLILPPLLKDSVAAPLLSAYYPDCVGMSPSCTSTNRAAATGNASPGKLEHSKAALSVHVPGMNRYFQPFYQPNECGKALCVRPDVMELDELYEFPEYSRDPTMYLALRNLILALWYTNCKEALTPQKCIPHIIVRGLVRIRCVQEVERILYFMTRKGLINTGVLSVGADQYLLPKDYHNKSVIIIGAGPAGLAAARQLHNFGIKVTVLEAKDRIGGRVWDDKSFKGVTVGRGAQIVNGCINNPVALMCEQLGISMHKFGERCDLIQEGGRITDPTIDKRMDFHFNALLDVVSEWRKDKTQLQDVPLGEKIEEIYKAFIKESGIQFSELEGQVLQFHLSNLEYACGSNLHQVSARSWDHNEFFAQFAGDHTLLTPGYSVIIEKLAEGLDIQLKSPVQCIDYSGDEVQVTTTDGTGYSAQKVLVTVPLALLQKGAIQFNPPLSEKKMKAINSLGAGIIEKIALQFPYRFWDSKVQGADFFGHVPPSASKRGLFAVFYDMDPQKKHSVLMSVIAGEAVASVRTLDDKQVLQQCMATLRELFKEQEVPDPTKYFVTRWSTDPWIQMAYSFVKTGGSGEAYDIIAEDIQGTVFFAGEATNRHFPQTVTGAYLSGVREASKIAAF
Protocol: FIGS. 12A-12F depict analysis of LSD2 demethylation activity and mutational analysis. […] Demethylation products were analyzed by MALDI-TOF mass spectrometry. 0.15 μM LSD2 can efficiently demethylate the longer H3K4me2 peptide (1-21), but has no detectable activity on the shorter histone peptide (1-15), demethylation of which requires high concentration (1.2 μM) of LSD2. […] It indicates the importance of histone residue 16-21 to LSD2 enzymatic activity and NPAC cofactor activity, supporting our model that NPAC assists enzyme-substrate interactions by creating a new binding site for H3 L20 in the LSD2-NPAC complex. FIG. 12C depicts LSD2 demethylation and NPAC cofactor activity on longer H3K4me2 peptide (1-44). […] The cofactor activity of wild-type NPAC was readily detected under the same conditions. […] It is noted that no obvious cofactor effect of F217A peptide or linker regions was detected in nucleosome and peptide demethylation assays (FIG. 6E and data not shown). […]
Histone peptides are purchased from Millipore, or custom synthesized. The purity of all peptides are >95% as determined by HPLC and mass spectrometry. […] The products were desalted through a C18 Ziptip (Millipore) and analyzed on a MALDI-TOF micro MX mass spectrometer (ABI 4700, Applied Biosystems). […]

B1: NPAC: full-length human NPAC/GLYR1 (protein ID: Q49A26), recombinant, LSD2 cofactor (protein)
chain: MAAVSLRLGDLVWGKLGRYPPWPGKIVNPPKDLKKPRGKKCFFVKFFGTEDHAWIKVEQLKPYHAHKEEMIKINKGKRFQQAVDAVEEFLRRAKGKDQTSSHNSSDDKNRRNSSEERSRPNSGDEKRKLSLSEGKVKKNMGEGKKRVSSGSSERGSKSPLKRAQEQSPRKRGRPPKDEKDLTIPESSTVKGMMAGPMAAFKWQPTASEPVKDADPHFHHFLLSQTEKPAVCYQAITKKLKICEEETGSTSIQAADSTAVNGSITPTDKKIGFLGLGLMGSGIVSNLLKMGHTVTVWNRTAEKCDLFIQEGARLGRTPAEVVSTCDITFACVSDPKAAKDLVLGPSGVLQGIRPGKCYVDMSTVDADTVTELAQVIVSRGGRFLEAPVSGNQQLSNDGMLVILAAGDRGLYEDCSSCFQAMGKTSFFLGEVGNAAKMMLIVNMVQGSFMATIAEGLTLAHVTGQSQQTLLDILNQGQLASIFLDQKCQNILQGNFKPDFYLKYIQKDLRLAIALGDAVNHPTPMAAAANEVYKRAKALDQSDNDMSAVYRAYIH
[1]
  Nucleosome binding (GST-pulldown): binds strongly with purified nucleosomes
LSD2
  Cofactor activity: stimulation of LSD2 demethylation of H3K4me2 peptide: can robustly stimulate LSD2 demethylation of the longer peptide (1-44)
